To fix the notation:
T1: human CXCR2 (human, UniProt P25025 1-360)
T1 construct: also called CXC chemokine receptor 2; hCXCR2
T1 sequence: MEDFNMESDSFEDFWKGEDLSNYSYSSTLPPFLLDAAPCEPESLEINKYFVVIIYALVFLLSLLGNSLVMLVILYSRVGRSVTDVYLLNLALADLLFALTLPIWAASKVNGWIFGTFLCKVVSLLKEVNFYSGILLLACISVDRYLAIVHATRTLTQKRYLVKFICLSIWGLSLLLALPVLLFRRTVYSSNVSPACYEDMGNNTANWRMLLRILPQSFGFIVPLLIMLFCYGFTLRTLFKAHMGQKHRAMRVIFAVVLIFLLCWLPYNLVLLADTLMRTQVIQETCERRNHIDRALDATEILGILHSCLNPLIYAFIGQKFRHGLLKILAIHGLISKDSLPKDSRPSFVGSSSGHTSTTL

T2: human CXCR1 (human, UniProt P25024 1-350)
T2 sequence: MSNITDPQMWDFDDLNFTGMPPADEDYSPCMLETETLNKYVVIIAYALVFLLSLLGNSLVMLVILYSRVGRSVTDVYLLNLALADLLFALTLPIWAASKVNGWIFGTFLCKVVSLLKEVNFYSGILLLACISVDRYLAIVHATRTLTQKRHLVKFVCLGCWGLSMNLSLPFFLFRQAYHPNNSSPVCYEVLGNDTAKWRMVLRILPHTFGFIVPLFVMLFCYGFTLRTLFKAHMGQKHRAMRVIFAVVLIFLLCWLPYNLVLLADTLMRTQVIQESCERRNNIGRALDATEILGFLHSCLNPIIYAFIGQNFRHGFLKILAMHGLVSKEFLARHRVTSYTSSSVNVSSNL

B1: BKO-5E8 (antibody, human IgG4 S228P, lambda, V domains shown)
VH: EVQLLESGGGLVQPGGSLRLSCAASGFTFSSYAMSWVRQAPGRGLEWVSAIRGSGAGTYYADSMKGRFTISRDNSKDTLYLLMNSLRAEDTAVYYCSKLEAVSGTGKYFQHWGQGTLVTVSS
VL: SYELTQPPSVSVSPGQTANITCSGDTLGDKFACWYQQKPGQSPVLVIYQDTKRPSGIPERFSGSKSGITATLTISGTQAMDEADFYCQAWNSRGVVFGGGTRLTVLG
notes: recombinant human IgG4 S228P, lambda
B2: BKO_7C11 (antibody, human IgG4 S228P, lambda, V domains shown)
VH: QVQLQQWGAGLLKPSETLSLTCAVYGGSFSGYYWSWIRQPPGKGLEWIGEINHSRNTNYNPSLKSRVTISVDTSKNQFSLKLSSVTAADTAVYYCARGEVRGVFTLYWYFDVWGRGTLVTVSS
VL: SSELTQGPAVSVALGQTVRITCQGNSLRFYYASWYQQRPGQAPILVIYDKNNRPSGIPDRFSGSSSGNTASLTITGAQAEDEADYYCNSRDSSGYYMIFGGGTKLTVLG
notes: as for B1
B3: BKO-3A9_b (antibody, human IgG4 S228P, lambda, V domains shown)
VH: QVQVQQSGPGLVKPSQTLSLTCAISGDSVSSNSAAWNWIRQSPSRGLEWLGRTYYRSKWYNDYAVSLKRRITIRPDTSRNHFSLHLSSVTPEDTAVYYCVRAYCGGGSCLDYWGQGTLVTVSS
VL: QSALTQPASASGSPGQSITISCTGTSSDVGNYNRVSWYQQHPGKVPKLMIYEGSKRPSGISNRFSGSKSGNTASLTISGLQPEDEADYFCCSYAGSNTLVFGGGTKLTVLG
notes: as for B1
B4: BKO-3D6 (antibody, human IgG4 S228P, lambda, V domains shown)
VH: EVQLVESGGDLVQPGRSLRLSCAASGFTFDDYAMHWVRQAPGKGLKWVSGITWNSGNKRYADSVKGRFTISRDNAKNSLYLQMNSLRAEDTALYYCAKDMKGSGTYFPAFDYWGQGTLVTVSS
VL: not shown
notes: as for B1
B5: BKO-1B10 (antibody, human IgG4 S228P, lambda, V domains shown)
VH: QLQLQESGPGLVKPSETLSLTCTVSGGSIRTSSYYWGWIRQPPGKGLEYIGSIYYSGTTYYNPSLKSRVTMSVDTSKNQFSLKLSSVTAADTAVYYCARHGRVREVPPFDYWGQGTLVTVSS
VL: SSELTQDPAVSVALGQTVRITCQGDSLRYYYASWYQQKPGQAPVLVIYDENSRPSGIPDRFSGSSSGNTASLRITGTQAEDEADYYCNSRDTSGNHWAFGGGTKLTVLG
notes: as for B1
B6: BKO-6A1_b (antibody, human IgG4 S228P, lambda, V domains shown)
VH: B2 VH with Q5K, S35T, R55G, N56S, I69M, S83R, V103L, F104I, T117S
VL: B5 VL with Y29S, D49G, E50K, S52N, R73T, T77A, T92S, W97V, A98V
notes: as for B1
B7: BKO-1A1 (antibody, human IgG4 S228P, lambda, V domains shown)
VH: B5 VH with L84M, T92S
VL: B5 VL with R73S
notes: as for B1
B8: BKO-4F10 (antibody, human IgG4 S228P, lambda)
heavy: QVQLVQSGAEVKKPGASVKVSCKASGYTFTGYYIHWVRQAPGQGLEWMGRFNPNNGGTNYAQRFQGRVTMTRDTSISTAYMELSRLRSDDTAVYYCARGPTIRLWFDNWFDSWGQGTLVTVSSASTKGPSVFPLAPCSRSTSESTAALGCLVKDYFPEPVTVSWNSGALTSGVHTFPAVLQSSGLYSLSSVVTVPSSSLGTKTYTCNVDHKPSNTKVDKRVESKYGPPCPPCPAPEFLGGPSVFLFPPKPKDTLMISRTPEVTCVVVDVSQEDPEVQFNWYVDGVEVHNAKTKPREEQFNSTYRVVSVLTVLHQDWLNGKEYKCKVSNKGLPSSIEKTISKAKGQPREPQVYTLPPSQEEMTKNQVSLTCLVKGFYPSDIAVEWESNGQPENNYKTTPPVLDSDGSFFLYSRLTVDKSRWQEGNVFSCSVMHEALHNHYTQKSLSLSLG
light: QSALTQPASVSGSPGQSITISCTGTSSDVGGYNYVSWYQQHPGKAPKLMIYDVSNRPSGISNRFSGSKSGNTASLTISGLQAEDEADYYCSSYTSSSTWVFGGGTKLTVLGQPKAAPSVTLFPPSSEELQANKATLVCLISDFYPGAVTVAWKADSSPVKAGVETTTPSKQSNNKYAASSYLSLTPEQWKSHRSYSCQVTHEGSTVEKTVAPTECS
notes: as for B1
B9: BKO-5G6_c (antibody, human IgG4 S228P, lambda)
heavy: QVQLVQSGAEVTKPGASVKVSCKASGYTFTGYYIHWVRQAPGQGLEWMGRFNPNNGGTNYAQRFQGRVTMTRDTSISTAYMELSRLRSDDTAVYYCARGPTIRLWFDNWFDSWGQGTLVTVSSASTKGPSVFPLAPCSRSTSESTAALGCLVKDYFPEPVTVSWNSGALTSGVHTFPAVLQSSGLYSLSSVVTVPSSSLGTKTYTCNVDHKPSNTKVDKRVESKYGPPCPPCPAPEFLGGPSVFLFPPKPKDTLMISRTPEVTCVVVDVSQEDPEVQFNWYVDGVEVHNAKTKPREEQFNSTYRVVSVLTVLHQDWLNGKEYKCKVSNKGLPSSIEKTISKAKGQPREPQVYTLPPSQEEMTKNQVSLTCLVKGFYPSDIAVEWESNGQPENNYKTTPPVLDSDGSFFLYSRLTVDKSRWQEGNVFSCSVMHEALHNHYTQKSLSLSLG
light: B8 light with K106T
notes: as for B1
B10: BKO-1D1 (antibody, human IgG4 S228P, lambda, V domains shown)
VH: EVQLLESGGGLVQPGGSLRLSCAASKLTFKNSAMSWVRQAPGKGLEWVSAITGSGGRTYYADSVKGRFTISRDNSKNTLYLQMNSLRAEDTAIYYCAIQMGYWGQGILVTVSS
VL: QSALTQPPSASGSPGQSVTISCTGTSSDVGGYNYVSWYQQHPGKAPKLMIYEVNKRPSGVPARFSGSKSGNTASLTVSGLQAEDEADYYCSSYAGSNNFGVFGGGTKLTVLG
notes: as for B1
B11: BKO-3F4 (antibody, human IgG4 S228P, lambda, V domains shown)
VH: B10 VH with K26G, K30S, N31S, S32Y, T52S, R57K, T58I, I93V, M100V, I107T
VL: B10 VL with I20M, S36T, N54S, S96P
notes: as for B1
B12: BKO-2D8 (antibody, human IgG4 S228P, lambda, V domains shown)
VH: EVQLLESGGGLVQPGGSLRLSCAASGYTFTSSTMSWVRQAPGKGLEWVTAISGRGGRTYYADSVKGRFTISRDNSKNTLYLQMNSLRAEDTAVYYCAIQLGNWGQGILVTVSS
VL: B10 VL with V29I, M49V, K55M, S96N, N97D, T109S
notes: as for B1
B13: BKO-7G10_a (antibody, human IgG4 S228P, lambda, V domains shown)
VH: EVQLLESGGGLVQPGGSLRLSCAVSGFTFSNYAMTWVRQAPGKGLEWVSAISGRGSRTYYADSVKGRFTISRDTSKNTLYLQMNSLRAEDTAVYYCAKMDYWGQGTLVTVSS
VL: B10 VL with Y51F, N54S, A62D
notes: as for B1
B14: BKO-5G11 (antibody, human IgG4 S228P, lambda, V domains shown)
VH: B13 VH
VL: B10 VL with Y51F, N54S, A62D
notes: as for B1
B15: BKO-8H8_b (antibody, human IgG4 S228P, lambda, V domains shown)
VH: EVQLLESGGGLVQPGGSLRLSCAASGLTVSSYAMSWVRQAPGKGLEWVSAISGSGGKIYYADSVKGRFTISRDNSKNTLYLQMNSLSAEDTAVYYCAIQVGYWGQGTLVTVSS
VL: B10 VL with I20M, S36T, M49V, N54S, A62V, S96P, V101I
notes: as for B1
B16: BKO-1H3 (antibody, human IgG4 S228P, lambda, V domains shown)
VH: B12 VH with Y27F, F29L, T30S, S31R, T33S, M34T, A40T, T49S, R54S, N102Y
VL: QSALTQPASVSGSPGQSITISCTGTSSDVGGYNYVSWYQQHPGKAPKLMIYDVSNRPSGVSNRFSGSKSGNTASLTISGLQAEDEADYYCSSYTSSSTWVFGGGTKLTVLG
notes: as for B1

Substitutions are numbered along the chain they refer to. Numbers in names are those of the source.

The target of the first assay is T1, human CXCR2. Put plainly: flow cytometry, transfected Expi293F cells. How it is done: (§1) Harvested cells were resuspended in FACS buffer (1×PBS+0.5% (w/v) bovine serum albumin (BSA)+2 mM EDTA pH 7.2). Approximately 2×10⁵ cells were added per well in a 96-well round-bottomed plate. Cells were pelleted by centrifugation at 400 g for 5 mins at 4° C. and supernatants discarded. 25 μL of each test antibody or control antibody was added to the cells and incubated for 30 minutes at 4° C. Cells were washed twice in 100 μL FACS buffer followed by centrifugation at 400 g for 5 mins at 4° C.
(§2) For detection, 50 μL of secondary antibody (Table 2) was added to relevant samples. Commercially available antibodies that bound to transfected CXCR family members were used as positive controls to ensure that the cells were expressing the receptors. Cells were washed twice in 200 μL of FACS buffer followed by centrifugation at 400 g for 5 mins at 4° C. Before sample acquisition, cells were resuspended in 100 μL of FACS buffer. Samples were acquired using the high throughput sampler on a FACSCanto™ II cytometer (Beckton-Dickinson).
(§3) These antibody variable regions were then generated by gene synthesis and subcloned into mammalian expression vectors as described in General Methods. Antibodies were produced by co-expression of heavy and light chain plasmids in Expi293F™ cells and purified by protein A column chromatography as described in General Methods. Where several heavy and/or light chains were identified from the same hybridoma cells, each heavy chain was paired with each light chain and the resulting antibodies given suffix a, b, c, etc. Purified antibodies were desalted into Sorensen's PBS pH 5.8 and tested by flow cytometry for binding to Expi293F™ cells transfected with human CXCR2 or human CXCR1 and mock transfected Expi293F™ cells.
B1: the binding result was “binds”.

On to B2, for which the binding result is recorded as “binds”.

For the molecule B3, the binding result is reported as “binds”.

With B4, the binding result is on record as “binds”.

Regarding B5, the binding result is “binds”.

B6: the binding result is recorded as “binds”.

Turning to B7, the binding result is recorded as “binds”.

In the case of B8, the binding result is “binds”.

With B9, the binding result is recorded as “binds”.

In the case of B10, the binding result was “binds”.

B11: the binding result is on record as “binds”.

On to B12, for which the binding result is reported as “binds”.

For the molecule B13, the binding result was “binds”.

Regarding B14, the binding result is “binds”.

As for B15, the binding result is “binds”.

With B16, the binding result is given as “binds”.

The target in a further assay is T2, human CXCR1. Kind of assay: flow cytometry, transfected Expi293F cells. How it is done: as §1, §2, §3
In general terms: In flow cytometry, cells or beads pass a laser one at a time.
In the case of B1, the binding result is on record as “no binding”.

Take B2: the binding result is recorded as “no binding”.

With B3, the binding result was “no binding”.

Regarding B4, the binding result is given as “no binding”.

As for B5, the binding result was “no binding”.

On to B6, for which the binding result is recorded as “no binding”.

B7: the binding result was “no binding”.

Consider B8, for which the binding result was “no binding”.

For the molecule B9, the binding result is reported as “no binding”.

With B10, the binding result was “no binding”.

Take B11: the binding result is listed as “no binding”.

Turning to B12, the binding result is on record as “no binding”.

On to B13, for which the binding result is “no binding”.

With B14, the binding result is “no binding”.

Take B15: the binding result is on record as “no binding”.

In the case of B16, the binding result was “no binding”.

The values are drawn from patent US20240301076A1 (CEPHALON, published 2024).
